What was measured:
MBP-NLRP3 deltaPYD = MBP-NLRP3 deltaPYD (UniProt Q96P20 134-1034); assay: EMSA
GFP-NLRP6 monomer = molecular target: T1, GFP-NLRP6 monomer (Homo sapiens, UniProt P59044 1-892); assay: MST
T1 sequence: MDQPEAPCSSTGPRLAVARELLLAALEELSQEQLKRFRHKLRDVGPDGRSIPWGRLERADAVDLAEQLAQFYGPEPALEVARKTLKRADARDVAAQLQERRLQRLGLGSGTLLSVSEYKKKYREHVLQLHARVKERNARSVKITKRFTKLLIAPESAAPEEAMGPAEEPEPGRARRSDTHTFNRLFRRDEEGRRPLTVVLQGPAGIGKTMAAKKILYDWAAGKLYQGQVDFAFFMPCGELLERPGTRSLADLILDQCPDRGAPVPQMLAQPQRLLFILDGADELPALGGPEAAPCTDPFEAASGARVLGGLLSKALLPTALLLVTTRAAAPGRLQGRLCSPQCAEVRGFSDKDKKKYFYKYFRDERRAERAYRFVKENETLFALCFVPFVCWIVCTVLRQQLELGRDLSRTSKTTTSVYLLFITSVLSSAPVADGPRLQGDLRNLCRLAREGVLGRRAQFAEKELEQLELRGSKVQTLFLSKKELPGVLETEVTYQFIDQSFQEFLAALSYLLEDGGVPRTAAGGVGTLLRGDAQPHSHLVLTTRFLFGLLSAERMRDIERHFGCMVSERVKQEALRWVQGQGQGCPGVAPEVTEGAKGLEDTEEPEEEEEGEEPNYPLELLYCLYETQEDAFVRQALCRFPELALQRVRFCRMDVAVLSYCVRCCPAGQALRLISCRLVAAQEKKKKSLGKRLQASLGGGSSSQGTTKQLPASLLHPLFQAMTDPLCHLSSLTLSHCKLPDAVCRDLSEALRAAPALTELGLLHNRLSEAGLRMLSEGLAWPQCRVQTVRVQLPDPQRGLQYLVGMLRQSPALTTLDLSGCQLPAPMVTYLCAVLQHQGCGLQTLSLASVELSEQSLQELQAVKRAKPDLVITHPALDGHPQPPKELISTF

MBP-NLRP3 deltaPYD, sequence (Q96P20 134-1034, stated change not applied): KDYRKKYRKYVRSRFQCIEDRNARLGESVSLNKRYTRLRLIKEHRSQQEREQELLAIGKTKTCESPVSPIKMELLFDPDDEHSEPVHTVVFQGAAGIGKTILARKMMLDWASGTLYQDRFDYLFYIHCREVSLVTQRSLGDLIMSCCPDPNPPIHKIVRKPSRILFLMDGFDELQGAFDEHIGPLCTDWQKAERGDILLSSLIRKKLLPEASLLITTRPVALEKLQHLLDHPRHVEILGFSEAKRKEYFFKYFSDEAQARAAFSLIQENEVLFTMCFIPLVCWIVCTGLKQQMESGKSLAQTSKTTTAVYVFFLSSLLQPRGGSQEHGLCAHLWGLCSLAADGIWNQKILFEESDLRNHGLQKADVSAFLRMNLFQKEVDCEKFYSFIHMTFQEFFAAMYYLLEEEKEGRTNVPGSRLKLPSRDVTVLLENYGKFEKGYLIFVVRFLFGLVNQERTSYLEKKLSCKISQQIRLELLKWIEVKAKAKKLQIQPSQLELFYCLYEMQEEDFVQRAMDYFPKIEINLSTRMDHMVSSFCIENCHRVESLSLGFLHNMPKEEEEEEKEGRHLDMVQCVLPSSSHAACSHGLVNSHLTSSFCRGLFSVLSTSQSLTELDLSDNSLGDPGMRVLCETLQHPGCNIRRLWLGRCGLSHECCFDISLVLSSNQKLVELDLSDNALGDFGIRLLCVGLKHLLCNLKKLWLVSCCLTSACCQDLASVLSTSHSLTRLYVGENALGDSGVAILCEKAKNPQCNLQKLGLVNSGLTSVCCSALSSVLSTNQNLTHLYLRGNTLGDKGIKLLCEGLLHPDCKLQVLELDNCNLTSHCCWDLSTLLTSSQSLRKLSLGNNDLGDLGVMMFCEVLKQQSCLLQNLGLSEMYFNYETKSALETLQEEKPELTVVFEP

B1: 20-bp dsRNA (dsRNA)
RNA 1: GACCUUCUGAUCAGAAGGUC
RNA 2: GACCUUCUGAUCAGAAGGUC
MBP-NLRP3 deltaPYD
  binding result: no binding
GFP-NLRP6 monomer
  Kd: ~1200 nM

Source: paper PMC8643277
